Measurements reported in patent US20250340631A1 (HARBOUR BIOMED SHANGHAI, published 2025).

Key:
[1] = biological target: T1, human CLDN4 (human, UniProt O14493 1-209); test: FACS on HEK293 cells transiently expressing human CLDN4
T1 construct: whole, on cells; also called hCLDN4
T1 sequence (looked up): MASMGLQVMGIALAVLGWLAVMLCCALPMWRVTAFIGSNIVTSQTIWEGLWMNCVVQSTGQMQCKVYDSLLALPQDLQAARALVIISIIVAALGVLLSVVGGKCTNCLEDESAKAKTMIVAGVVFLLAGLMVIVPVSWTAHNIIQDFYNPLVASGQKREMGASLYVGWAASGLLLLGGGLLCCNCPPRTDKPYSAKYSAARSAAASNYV
Description: (§1) Antibodies were assayed for binding affinity to human CLDN18.2 paralogous proteins by FACS (ACEA NovoCyte). CLDN1, CLDN2, CLDN3, CLDN4, CLDN6 and CLDN9 genes of the human CLDN18.2 paralogous family were transiently transfected into HEK293 cells. […] The cell density was adjusted to 10⁶ cells/mL, and 50 μL of the cell suspension was added to each well of a 96-well plate. An antibody was diluted to 60 nM with FACS buffer, and 50 μL of the antibody dilution was added to each well of the 96-well plate. After 2 h of incubation at 4° C., the plate was washed twice with FACS buffer. Then, an FACS buffer containing a secondary antibody was added. After 1 h of incubation at 4° C., the plate was washed twice with FACS buffer. The cells were resuspended in fixative solution, and run FACS.

[2] = biological target: T2, human CLDN2 (human, UniProt P57739 1-230); test: FACS on HEK293 cells transiently expressing human CLDN2
T2 construct: whole, on cells; also called hCLDN2
T2 sequence (looked up): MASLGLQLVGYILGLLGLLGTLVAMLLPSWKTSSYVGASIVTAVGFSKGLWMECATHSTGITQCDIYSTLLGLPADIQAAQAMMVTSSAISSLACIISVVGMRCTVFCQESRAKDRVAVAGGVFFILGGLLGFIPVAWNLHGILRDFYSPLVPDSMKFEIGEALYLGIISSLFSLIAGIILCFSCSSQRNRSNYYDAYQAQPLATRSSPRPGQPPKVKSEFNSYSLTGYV
Description: as §1

[3] = biological target: T3, human CLDN18.2 (human); test: FACS on HEK293/hCLDN18.2 cells
T3 construct: the HEK293 line was made with a GenScript plasmid; also called hCLDN18.2
Description: Antibodies were assayed for binding affinity by FACS. Test cells include HEK293/hCLDN18.2, HEK293/hCLDN18.1, NUGC4_D8 and Jurkat cells. […] The cell density was adjusted to 10⁶ cells/mL, and 50 μL of the cell suspension was added to each well of a 96-well plate. Antibodies were diluted to different concentrations with FACS buffer, and 50 μL of the antibody dilution was added to each well of the 96-well plate. After 2 h of incubation at 4° C., the plate was washed twice with FACS buffer. […] After 1 h of incubation at 4° C., the plate was washed twice with FACS buffer. The cells were resuspended in fixative solution, and then the fluorescence of the cells was monitored using an FACS instrument (ACEA NovoCyte).

[4] = biological target: T3, human CLDN18.2; test: competition FACS on HEK293/hCLDN18.2 cells; competitor 200 nM biotinylated PR004549
Description: This example is to study the binding of anti-human CLDN18.2 bispecific antibodies to the epitope region of a human CLDN18.2 antigen. Competitive binding experiments were performed at the cellular level using human CLDN18.2-overexpressing HEK293/hCLDN18.2 cells. […] The mixture was well mixed and incubated at 4° C. for 30 min. 25 μL of the corresponding serially diluted non-biotinylated anti-human CLDN18.2 antibody was added. The mixture was well mixed and incubated at 4° C. for 1 h. The cells in each well were washed twice with 200 μL of pre-cooled FACS buffer (2% BSA in DPBS) and centrifuged at 500 g at 4° C. for 5 min, and then the supernatant was discarded. A fluorescent secondary antibody (Jackson ImmunoResearch, 016-540-084, 1:500) was added. The mixture was incubated at 4° C. in the absence of light for 1 h. The cells in each well were washed twice with 200 μL of pre-cooled FACS buffer (2% BSA in DPBS) and centrifuged at 500 g at 4° C. for 5 min, and then the supernatant was discarded. Finally, the cells in each well were resuspended in 200 μL of pre-cooled FACS buffer, and the fluorescence signal values were read using a ACEA_NovoCyte.

[5] = biological target: T3, human CLDN18.2; test: cell-based or functional assay
[6] = biological target: T4, human CLDN9 (human, UniProt O95484 1-217); test: FACS on HEK293 cells transiently expressing human CLDN9
T4 construct: whole, on cells; also called hCLDN9
T4 sequence (looked up): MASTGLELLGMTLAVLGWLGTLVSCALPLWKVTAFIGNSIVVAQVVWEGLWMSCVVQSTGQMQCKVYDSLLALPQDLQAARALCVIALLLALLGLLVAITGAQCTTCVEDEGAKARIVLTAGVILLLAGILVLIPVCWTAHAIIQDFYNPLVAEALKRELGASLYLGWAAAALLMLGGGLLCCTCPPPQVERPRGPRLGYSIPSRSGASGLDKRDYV
Description: as §1

| Binder | binding result [1] | binding result [2] | EC50 [3] [nM] | IC50 [4] [nM] | Maximum inhibition rate (%) [4] [%] | CDC, EC50 (nM), HEK293/hCLDN18.2 [5] [nM] | binding result [6] |
| --- | --- | --- | --- | --- | --- | --- | --- |
| PR006292 (bispecific antibody, human IgG1, lambda, structure 1; CD3 Fab from PR003886, CLDN18.2 VH from PR007245; IgG1 knob/hole, AAA (L234A, L235A, G237A)) EVQLVESGGGLVQPGGSLRLSCAASGFTFSSYWMHWVRQVPGKGLVWVSRISSDASRTIYADSVKGRFTISRDNAKNTLYLQMNSLRAEDTAVYYCARGEDHDILTGYPIRGQGTTVTVSSGGGGSGGGGSGGGGSEVQLVESGGGLVQPGGSLRLSCAASGFTFSSYWMHWVRQVPGKGLVWVSRISSDASRTIYADSVKGRFTISRDNAKNTLYLQMNSLRAEDTAVYYCARGEDHDILTGYPIRGQGTTVTVSSASEPKSSDKTHTCPPCPAPEAAGAPSVFLFPPKPKDTLMISRTPEVTCVVVDVSHEDPEVKFNWYVDGVEVHNAKTKPREEQYNSTYRVVSVLTVLHQDWLNGKEYKCKVSNKALPAPIEKTISKAKGQPREPQVCTLPPSREEMTKNQVSLSCAVKGFYPSDIAVEWESNGQPENNYKTTPPVLDSDGSFFLVSKLTVDKSRWQQGNVFSCSVMHEALHNHYTQKSLSLSPGK heavy: EVQLVESGGGLVQPGGSLKLSCAASGFTFSTYAMNWVRQASGKGLEWVGRIRSKYNNYATYYADSVKDRFTISRDDSKNTAYLQMNSLKTEDTAVYYCTRHGNFGNSYVSWFAYWGQGTLVTVSSASTKGPSVFPLAPSSKSTSGGTAALGCLVKDYFPEPVTVSWNSGALTSGVHTFPAVLQSSGLYSLSSVVTVPSSSLGTQTYICNVNHKPSNTKVDKKVEPKSCDKTHTCPPCPAPEAAGAPSVFLFPPKPKDTLMISRTPEVTCVVVDVSHEDPEVKFNWYVDGVEVHNAKTKPREEQYNSTYRVVSVLTVLHQDWLNGKEYKCKVSNKALPAPIEKTISKAKGQPREPQVYTLPPCREEMTKNQVSLWCLVKGFYPSDIAVEWESNGQPENNYKTTPPVLDSDGSFFLYSKLTVDKSRWQQGNVFSCSVMHEALHNHYTQKSLSLSPGK light: QAVVTQEPSLTVSPGGTVTLTCRSSTGAVTTSNYANWVQQKPGQAPRGLIGGTNKRAPWTPARFSGSLLGDKAALTLLGAQPEDEAEYFCALWYSNLWVFGGGTKLTVLGQPKAAPSVTLFPPSSEELQANKATLVCLISDFYPGAVTVAWKADSSPVKAGVETTTPSKQSNNKYAASSYLSLTPEQWKSHRSYSCQVTHEGSTVEKTVAPTECS | no binding | no binding | 11.5 | 70.8 | 48.1 | 37.1 | no binding |
| PR006384 (bispecific antibody, human IgG1, lambda, structure 1; CD3 Fab from PR003886, CLDN18.2 VH from PR007246; AAA) EVQLVESGGGLVQPGGSLRLSCAASGFTFSSYWMHWVRQVPGKGLVWVSRISSTGSRTIYADSVKGRFTISRDNAKNTLYLQMNSLRAEDTAVYYCARGEDHDILTGYPIRGQGTTVTVSSGGGGSGGGGSGGGGSEVQLVESGGGLVQPGGSLRLSCAASGFTFSSYWMHWVRQVPGKGLVWVSRISSTGSRTIYADSVKGRFTISRDNAKNTLYLQMNSLRAEDTAVYYCARGEDHDILTGYPIRGQGTTVTVSSASEPKSSDKTHTCPPCPAPEAAGAPSVFLFPPKPKDTLMISRTPEVTCVVVDVSHEDPEVKFNWYVDGVEVHNAKTKPREEQYNSTYRVVSVLTVLHQDWLNGKEYKCKVSNKALPAPIEKTISKAKGQPREPQVCTLPPSREEMTKNQVSLSCAVKGFYPSDIAVEWESNGQPENNYKTTPPVLDSDGSFFLVSKLTVDKSRWQQGNVFSCSVMHEALHNHYTQKSLSLSPGK heavy: EVQLVESGGGLVQPGGSLKLSCAASGFTFSTYAMNWVRQASGKGLEWVGRIRSKYNNYATYYADSVKDRFTISRDDSKNTAYLQMNSLKTEDTAVYYCTRHGNFGNSYVSWFAYWGQGTLVTVSSASTKGPSVFPLAPSSKSTSGGTAALGCLVKDYFPEPVTVSWNSGALTSGVHTFPAVLQSSGLYSLSSVVTVPSSSLGTQTYICNVNHKPSNTKVDKKVEPKSCDKTHTCPPCPAPEAAGAPSVFLFPPKPKDTLMISRTPEVTCVVVDVSHEDPEVKFNWYVDGVEVHNAKTKPREEQYNSTYRVVSVLTVLHQDWLNGKEYKCKVSNKALPAPIEKTISKAKGQPREPQVYTLPPCREEMTKNQVSLWCLVKGFYPSDIAVEWESNGQPENNYKTTPPVLDSDGSFFLYSKLTVDKSRWQQGNVFSCSVMHEALHNHYTQKSLSLSPGK light: QAVVTQEPSLTVSPGGTVTLTCRSSTGAVTTSNYANWVQQKPGQAPRGLIGGTNKRAPWTPARFSGSLLGDKAALTLLGAQPEDEAEYFCALWYSNLWVFGGGTKLTVLGQPKAAPSVTLFPPSSEELQANKATLVCLISDFYPGAVTVAWKADSSPVKAGVETTTPSKQSNNKYAASSYLSLTPEQWKSHRSYSCQVTHEGSTVEKTVAPTECS | no binding | no binding | 14.4 | 56.7 | 48.5 |  | no binding |
